Laboratory results: patent publication US20060287509A1 (University of California, published 2006)

Biological target: T1, c-erbB-2 ECD with a Ser-Gly-His6 C-terminal fusion (UniProt P04626 23-652)
T1 construct: extracellular domain; expressed from CHO cells, IMAC purified; coupled to a CM5 chip, adsorbed to polystyrene, or biotinylated and captured on avidin; also called c-erbB-2 extracellular domain; biotinylated c-erbB-2 ECD
Test: SPR (BIAcore)

| Binder | kon | koff |
| --- | --- | --- |
| C6ML3-13 (scFv, C6.5 with this VL CDR3; C-terminal myc and His6 tags) scFv: QVQLLQSGAELKKPGESLKISCKGSGYSFTSYWIAWVRQMPGKGLEYMGLIYPGDSDTKYSPSFQGQVTISVDKSVSTAYLQWSSLKPSDSAVYFCARHDVGYCSSSNCAKWPEYFQHWGQGTLVTVSSGGGGSGGGGSGGGGSQSVLTQPPSVSAAPGQKVTISCSGSSSNIGNNYVSWYQQLPGTAPKLLIYGHTNRPAGVPDRFSGSKSGTSASLAISGFRSEDEADYYCAAWDATLWGWVFGGGTKLTVLG | 870000 M⁻¹ s⁻¹ |  |
| C6ML3-29 (scFv, C6.5 with this VL CDR3; C-terminal myc and His6 tags) scFv: QVQLLQSGAELKKPGESLKISCKGSGYSFTSYWIAWVRQMPGKGLEYMGLIYPGDSDTKYSPSFQGQVTISVDKSVSTAYLQWSSLKPSDSAVYFCARHDVGYCSSSNCAKWPEYFQHWGQGTLVTVSSGGGGSGGGGSGGGGSQSVLTQPPSVSAAPGQKVTISCSGSSSNIGNNYVSWYQQLPGTAPKLLIYGHTNRPAGVPDRFSGSKSGTSASLAISGFRSEDEADYYCAAWDGTLWGWVFGGGTKLTVLG | 1.29e+06 M⁻¹ s⁻¹ |  |
| C6ML3-1 (scFv, C6.5 with this VL CDR3; C-terminal myc and His6 tags) scFv: QVQLLQSGAELKKPGESLKISCKGSGYSFTSYWIAWVRQMPGKGLEYMGLIYPGDSDTKYSPSFQGQVTISVDKSVSTAYLQWSSLKPSDSAVYFCARHDVGYCSSSNCAKWPEYFQHWGQGTLVTVSSGGGGSGGGGSGGGGSQSVLTQPPSVSAAPGQKVTISCSGSSSNIGNNYVSWYQQLPGTAPKLLIYGHTNRPAGVPDRFSGSKSGTSASLAISGFRSEDEADYYCAAWDYSLWGWVFGGGTKLTVLG | 300000 M⁻¹ s⁻¹ |  |
| C6ML3-14 (scFv, C6.5 with this VL CDR3; C-terminal myc and His6 tags) scFv: QVQLLQSGAELKKPGESLKISCKGSGYSFTSYWIAWVRQMPGKGLEYMGLIYPGDSDTKYSPSFQGQVTISVDKSVSTAYLQWSSLKPSDSAVYFCARHDVGYCSSSNCAKWPEYFQHWGQGTLVTVSSGGGGSGGGGSGGGGSQSVLTQPPSVSAAPGQKVTISCSGSSSNIGNNYVSWYQQLPGTAPKLLIYGHTNRPAGVPDRFSGSKSGTSASLAISGFRSEDEADYYCAAWDDPLWGWVFGGGTKLTVLG | 770000 M⁻¹ s⁻¹ |  |
| C6ML3-6 (scFv, C6.5 with this VL CDR3; C-terminal myc and His6 tags) scFv: QVQLLQSGAELKKPGESLKISCKGSGYSFTSYWIAWVRQMPGKGLEYMGLIYPGDSDTKYSPSFQGQVTISVDKSVSTAYLQWSSLKPSDSAVYFCARHDVGYCSSSNCAKWPEYFQHWGQGTLVTVSSGGGGSGGGGSGGGGSQSVLTQPPSVSAAPGQKVTISCSGSSSNIGNNYVSWYQQLPGTAPKLLIYGHTNRPAGVPDRFSGSKSGTSASLAISGFRSEDEADYYCASWDYSLSGWVFGGGTKLTVLG | 590000 M⁻¹ s⁻¹ |  |
| C6ML3-11 (scFv, C6.5 with this VL CDR3; C-terminal myc and His6 tags) scFv: QVQLLQSGAELKKPGESLKISCKGSGYSFTSYWIAWVRQMPGKGLEYMGLIYPGDSDTKYSPSFQGQVTISVDKSVSTAYLQWSSLKPSDSAVYFCARHDVGYCSSSNCAKWPEYFQHWGQGTLVTVSSGGGGSGGGGSGGGGSQSVLTQPPSVSAAPGQKVTISCSGSSSNIGNNYVSWYQQLPGTAPKLLIYGHTNRPAGVPDRFSGSKSGTSASLAISGFRSEDEADYYCAAWDYALWGWVFGGGTKLTVLG | 610000 M⁻¹ s⁻¹ |  |
| C6ML3-15 (scFv, C6.5 with this VL CDR3; C-terminal myc and His6 tags) scFv: QVQLLQSGAELKKPGESLKISCKGSGYSFTSYWIAWVRQMPGKGLEYMGLIYPGDSDTKYSPSFQGQVTISVDKSVSTAYLQWSSLKPSDSAVYFCARHDVGYCSSSNCAKWPEYFQHWGQGTLVTVSSGGGGSGGGGSGGGGSQSVLTQPPSVSAAPGQKVTISCSGSSSNIGNNYVSWYQQLPGTAPKLLIYGHTNRPAGVPDRFSGSKSGTSASLAISGFRSEDEADYYCAAWDRPLWGWVFGGGTKLTVLG | 590000 M⁻¹ s⁻¹ | 0.0013 s⁻¹ |
| C6ML3-10 (scFv, C6.5 with this VL CDR3; C-terminal myc and His6 tags) scFv: QVQLLQSGAELKKPGESLKISCKGSGYSFTSYWIAWVRQMPGKGLEYMGLIYPGDSDTKYSPSFQGQVTISVDKSVSTAYLQWSSLKPSDSAVYFCARHDVGYCSSSNCAKWPEYFQHWGQGTLVTVSSGGGGSGGGGSGGGGSQSVLTQPPSVSAAPGQKVTISCSGSSSNIGNNYVSWYQQLPGTAPKLLIYGHTNRPAGVPDRFSGSKSGTSASLAISGFRSEDEADYYCAAWEDPWYGWVFGGGTKLTVLG | 610000 M⁻¹ s⁻¹ |  |
| C6ML3-8 (scFv, C6.5 with this VL CDR3; C-terminal myc and His6 tags) scFv: QVQLLQSGAELKKPGESLKISCKGSGYSFTSYWIAWVRQMPGKGLEYMGLIYPGDSDTKYSPSFQGQVTISVDKSVSTAYLQWSSLKPSDSAVYFCARHDVGYCSSSNCAKWPEYFQHWGQGTLVTVSSGGGGSGGGGSGGGGSQSVLTQPPSVSAAPGQKVTISCSGSSSNIGNNYVSWYQQLPGTAPKLLIYGHTNRPAGVPDRFSGSKSGTSASLAISGFRSEDEADYYCAAWDHLRWGWVFGGGTKLTVLG | 650000 M⁻¹ s⁻¹ |  |
| C6ML3-4 (scFv, C6.5 with this VL CDR3; C-terminal myc and His6 tags) scFv: QVQLLQSGAELKKPGESLKISCKGSGYSFTSYWIAWVRQMPGKGLEYMGLIYPGDSDTKYSPSFQGQVTISVDKSVSTAYLQWSSLKPSDSAVYFCARHDVGYCSSSNCAKWPEYFQHWGQGTLVTVSSGGGGSGGGGSGGGGSQSVLTQPPSVSAAPGQKVTISCSGSSSNIGNNYVSWYQQLPGTAPKLLIYGHTNRPAGVPDRFSGSKSGTSASLAISGFRSEDEADYYCASWEYSLWGWVFGGGTKLTVLG | 400000 M⁻¹ s⁻¹ |  |
| C6ML3-3 (scFv, C6.5 with this VL CDR3; C-terminal myc and His6 tags) scFv: QVQLLQSGAELKKPGESLKISCKGSGYSFTSYWIAWVRQMPGKGLEYMGLIYPGDSDTKYSPSFQGQVTISVDKSVSTAYLQWSSLKPSDSAVYFCARHDVGYCSSSNCAKWPEYFQHWGQGTLVTVSSGGGGSGGGGSGGGGSQSVLTQPPSVSAAPGQKVTISCSGSSSNIGNNYVSWYQQLPGTAPKLLIYGHTNRPAGVPDRFSGSKSGTSASLAISGFRSEDEADYYCATWDYALSGWVFGGGTKLTVLG | 460000 M⁻¹ s⁻¹ |  |
| C6ML3-2 (scFv, C6.5 with this VL CDR3; C-terminal myc and His6 tags) scFv: QVQLLQSGAELKKPGESLKISCKGSGYSFTSYWIAWVRQMPGKGLEYMGLIYPGDSDTKYSPSFQGQVTISVDKSVSTAYLQWSSLKPSDSAVYFCARHDVGYCSSSNCAKWPEYFQHWGQGTLVTVSSGGGGSGGGGSGGGGSQSVLTQPPSVSAAPGQKVTISCSGSSSNIGNNYVSWYQQLPGTAPKLLIYGHTNRPAGVPDRFSGSKSGTSASLAISGFRSEDEADYYCAAWDHSLSGWVFGGGTKLTVLG | 710000 M⁻¹ s⁻¹ |  |
| C6ML3-23 (scFv, C6.5 with this VL CDR3; C-terminal myc and His6 tags) scFv: QVQLLQSGAELKKPGESLKISCKGSGYSFTSYWIAWVRQMPGKGLEYMGLIYPGDSDTKYSPSFQGQVTISVDKSVSTAYLQWSSLKPSDSAVYFCARHDVGYCSSSNCAKWPEYFQHWGQGTLVTVSSGGGGSGGGGSGGGGSQSVLTQPPSVSAAPGQKVTISCSGSSSNIGNNYVSWYQQLPGTAPKLLIYGHTNRPAGVPDRFSGSKSGTSASLAISGFRSEDEADYYCASWDHSLWGWVFGGGTKLTVLG | 670000 M⁻¹ s⁻¹ |  |
| C6ML3-12 (scFv, C6.5 with this VL CDR3; C-terminal myc and His6 tags) scFv: QVQLLQSGAELKKPGESLKISCKGSGYSFTSYWIAWVRQMPGKGLEYMGLIYPGDSDTKYSPSFQGQVTISVDKSVSTAYLQWSSLKPSDSAVYFCARHDVGYCSSSNCAKWPEYFQHWGQGTLVTVSSGGGGSGGGGSGGGGSQSVLTQPPSVSAAPGQKVTISCSGSSSNIGNNYVSWYQQLPGTAPKLLIYGHTNRPAGVPDRFSGSKSGTSASLAISGFRSEDEADYYCAAWDYSRSGWVFGGGTKLTVLG | 450000 M⁻¹ s⁻¹ |  |
| C6ML3-19 (scFv, C6.5 with this VL CDR3; C-terminal myc and His6 tags) scFv: QVQLLQSGAELKKPGESLKISCKGSGYSFTSYWIAWVRQMPGKGLEYMGLIYPGDSDTKYSPSFQGQVTISVDKSVSTAYLQWSSLKPSDSAVYFCARHDVGYCSSSNCAKWPEYFQHWGQGTLVTVSSGGGGSGGGGSGGGGSQSVLTQPPSVSAAPGQKVTISCSGSSSNIGNNYVSWYQQLPGTAPKLLIYGHTNRPAGVPDRFSGSKSGTSASLAISGFRSEDEADYYCASWDRPLWGWVFGGGTKLTVLG | 670000 M⁻¹ s⁻¹ |  |

Biological target: T1, c-erbB-2 ECD with a Ser-Gly-His6 …
Test: from SPR (BIAcore) Kd values

| Binder | ΔΔGI |
| --- | --- |
| C6-B1D6 (scFv, C6MH3-B1 with the library D residues of C6MH3-D6) scFv: QVQLLQSGAELKKPGESLKISCKGSGYSFTSYWIAWVRQMPGKGLEYMGLIYPGDSDTKYSPSFQGQVTISVDKSVSTAYLQWSSLKPSDSAVYFCARHDVGYCTDRTCAKWPEWMYPWGQGTLVTVSSGGGGSGGGGSGGGGSQSVLTQPPSVSAAPGQKVTISCSGSSSNIGNNYVSWYQQLPGTAPKLLIYGHTNRPAGVPDRFSGSKSGTSASLAISGFRSEDEADYYCASWDYTLSGWVFGGGTKLTVLG | -0.16 kcal/mol |
| C6-B47D3 (scFv, C6MH3-B47 with the library D residues of C6MH3-D3) scFv: QVQLLQSGAELKKPGESLKISCKGSGYSFTSYWIAWVRQMPGKGLEYMGLIYPGDSDTKYSPSFQGQVTISVDKSVSTAYLQWSSLKPSDSAVYFCARHDVGYCTDRSCAKWPEWLDNWGQGTLVTVSSGGGGSGGGGSGGGGSQSVLTQPPSVSAAPGQKVTISCSGSSSNIGNNYVSWYQQLPGTAPKLLIYGHTNRPAGVPDRFSGSKSGTSASLAISGFRSEDEADYYCASWDYTLSGWVFGGGTKLTVLG | 0.29 kcal/mol |
| C6-B47D1 (scFv, C6MH3-B47 with the library D residues of C6MH3-D1) scFv: QVQLLQSGAELKKPGESLKISCKGSGYSFTSYWIAWVRQMPGKGLEYMGLIYPGDSDTKYSPSFQGQVTISVDKSVSTAYLQWSSLKPSDSAVYFCARHDVGYCTDRSCAKWPEWLHVWGQGTLVTVSSGGGGSGGGGSGGGGSQSVLTQPPSVSAAPGQKVTISCSGSSSNIGNNYVSWYQQLPGTAPKLLIYGHTNRPAGVPDRFSGSKSGTSASLAISGFRSEDEADYYCASWDYTLSGWVFGGGTKLTVLG | -0.11 kcal/mol |
| C6-B47D5 (scFv, C6MH3-B47 with the library D residues of C6MH3-D5) scFv: QVQLLQSGAELKKPGESLKISCKGSGYSFTSYWIAWVRQMPGKGLEYMGLIYPGDSDTKYSPSFQGQVTISVDKSVSTAYLQWSSLKPSDSAVYFCARHDVGYCTDRSCAKWPEWMQMWGQGTLVTVSSGGGGSGGGGSGGGGSQSVLTQPPSVSAAPGQKVTISCSGSSSNIGNNYVSWYQQLPGTAPKLLIYGHTNRPAGVPDRFSGSKSGTSASLAISGFRSEDEADYYCASWDYTLSGWVFGGGTKLTVLG | -0.01 kcal/mol |
| C6-B47D2 (scFv, C6MH3-B47 with the library D residues of C6MH3-D2) scFv: QVQLLQSGAELKKPGESLKISCKGSGYSFTSYWIAWVRQMPGKGLEYMGLIYPGDSDTKYSPSFQGQVTISVDKSVSTAYLQWSSLKPSDSAVYFCARHDVGYCTDRSCAKWPEWLGVWGQGTLVTVSSGGGGSGGGGSGGGGSQSVLTQPPSVSAAPGQKVTISCSGSSSNIGNNYVSWYQQLPGTAPKLLIYGHTNRPAGVPDRFSGSKSGTSASLAISGFRSEDEADYYCASWDYTLSGWVFGGGTKLTVLG | 0.62 kcal/mol |
